Measurements: the RNAGym collection of RNA variant scans (doi:10.7554/elife.90254)

B1: OR4K15 (parent)
chain: GUUAACGGUCAUAGGCCAUGGAAACUAGGAGCACCAUUUCGCUGCCAGUGAAGAAAUGAACAAAGAAAAUCUGGGCCAGGCAGGCAUCAAAAGAAAUAGUCUUGCGCUCAACCAGAAAGUCUGUAAUCAUUUUAAGGGUA

Variants of: B1
Test: self-cleavage, relative activity (ratio to wild type); higher = more cleavage; in vitro, sequencing; the parent is a self-cleaving ribozyme

Variant | self-cleavage
U132C A140G | 1.79
U132C A140U | 1.65
U131A A134U | 0.77
U133C A134G | 0.26
U133C A135G | 0.03
U131A G138C | 1.83
U127C U130C | 0.69
U131C U139C | 0.46
U131C U139A | 1.84
U127C A129G | 0.46
U127A U139C | 2.29
U130A | 0.92
U130C | 0.76
U130G | 1.03
A129G A140G | 1.24
U132C U133C | 1.1
U131A U133A | 0.95
A135G G137A | 0.09
A134G A135U | 0.3
A134G A135C | 1.54
U131G | 0.76
U131A | 1.05
U131C | 0.71

Variant | self-cleavage
C128U U130C | 0.55
A129G G137U | 1.7
A129G G137A | 0.54
A126G U132A | 0.69
U130A A140G | 1.02
U127C A140G | 0.73
U130C G138A | 1.41
A134C | 1.35
A134U | 1.26
A134G | 1.15
U132C A135U | 2.17
A126U U130C | 1.08
A126U G137A | 1.21
A135U | 1.47
A135C | 0.69
A135G | 1.14
U130A U139A | 0.89
A135G A140G | 0.95
U127A C128U | 1.78
U130C U139C | 1.09
U130C U132C | 1.17
U130C U132A | 1.4
G137U | 2.05

Variant | self-cleavage
G137C | 1.82
G137A | 1.12
U127C U132C | 0.86
U127C U132G | 1.62
U127C G136A | 0.59
C128U A140U | 2.45
G138U | 1.69
G138C | 1.73
G138A | 0.93
C128U U131C | 1.17
U131A U132A | 0.14
U132A A140U | 0.14
U132A U139C | 1.56
A129G U130C | 1.73
A129G U130A | 1.41
U132C | 1.05
U132A | 1.53
U132G | 0.89
U132C U139C | 1.81
A129G U132C | 1.16
U127A U133C | 2.29
U139C A140G | 1.57
U139G A140U | 1.51

Variant | self-cleavage
U127A A134U | 1.36
U127A A134G | 2.3
U132A A135G | 0.87
U127A A135G | 2.31
U127A A135U | 2.12
U127C A134G | 1.09
U130C U133A | 2.08
C128U | 0.85
C128A | 0.84
C128G | 0.45
A134U A135U | 1.42
U131C U133A | 0.91
U127A U130C | 0.43
A126G U133C | 1.2
U132C A134U | 1.49
A126U | 0.78
A126G U139C | 1.19
U130C A135G | 1.89
G138A A140U | 1.08
U127C A135U | 0.65
U127A A129G | 2.49
U127A U132C | 1.55
U131C G136A | 0.88
